Results from paper PMC9644274.

T1: GFP-RTN3 (Arabidopsis thaliana), Q9SH59
T1 chain: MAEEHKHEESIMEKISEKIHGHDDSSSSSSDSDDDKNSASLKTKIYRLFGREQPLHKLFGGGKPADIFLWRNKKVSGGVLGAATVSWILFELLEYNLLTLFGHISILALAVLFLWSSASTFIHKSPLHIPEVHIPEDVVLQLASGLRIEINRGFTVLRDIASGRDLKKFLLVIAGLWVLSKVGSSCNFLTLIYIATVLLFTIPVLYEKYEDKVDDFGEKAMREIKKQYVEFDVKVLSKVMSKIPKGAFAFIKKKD


Legend:
Assay in all cases: FRET or BRET; FRET-FLIM in tobacco leaf epidermal cells, transient expression; GFP fusion as donor, mRFP fusion as acceptor; a reduction of the donor's lifetime of 0.2 ns or more is taken as energy transfer
[1] = molecular target: GFP-PMTV-TGB2 (potato mop-top virus)
[2] = molecular target: GFP-PVX-TGB2 (potato virus X)
[3] = molecular target: TMV-30k-GFP (tobacco mosaic virus)
[4] = molecular target: CMV-3a-GFP (cauliflower mosaic virus in p-0009; cucumber mosaic virus in p-0012)
[5] = molecular target: T1, GFP-RTN3 (Arabidopsis thaliana), Q9SH59; conditions: remark: other sources report otherwise

Binder | average GFP fluorescence lifetime of the donor with the acceptor [1] | reduction of the GFP lifetime against the donor alone (Δ) [1] | average GFP fluorescence lifetime of the donor with the acceptor [2] | reduction of the GFP lifetime against the donor alone (Δ) [2] | average GFP fluorescence lifetime of the donor with the acceptor [3] | reduction of the GFP lifetime against the donor alone (Δ) [3] | average GFP fluorescence lifetime of the donor with the acceptor [4] | reduction of the GFP lifetime against the donor alone (Δ) [4] | average GFP fluorescence lifetime of the donor with the acceptor [5] | reduction of the GFP lifetime against the donor alone (Δ) [5]
mRFP-RTN6 (natural protein) MAEELEKSMHKEESLMEKIADKIHDHDSSSSSDSEHEKPESPSALKAKIYRLFGREKPVHKVLGGGLPADVFLWRDKKLSASVLGVATAIWVLFELVEYHFLSLVCHILIFALAALFLLSNAHAFMNKTPPKIPEIHIKEEHFLMIVSALRNELNQAFVILRSIALGRDLKKFLMVVFGLWIISVVGNWFNFLTLVYICFVVLHTVPMLYEKHEDKVDPVAEKTLKELKKHYMVFDEKVLSKLPVASLKAKLG | 2.19 ns | 0.22 ns | 2.08 ns | 0.31 ns | 2.08 ns | 0.32 ns | 2.04 ns | 0.33 ns | – | –
mRFP-RTN6, Q6DBN4 1-253 (natural protein) MAEELEKSMHKEESLMEKIADKIHDHDSSSSSDSEHEKPESPSALKAKIYRLFGREKPVHKVLGGGLPADVFLWRDKKLSASVLGVATAIWVLFELVEYHFLSLVCHILIFALAALFLLSNAHAFMNKTPPKIPEIHIKEEHFLMIVSALRNELNQAFVILRSIALGRDLKKFLMVVFGLWIISVVGNWFNFLTLVYICFVVLHTVPMLYEKHEDKVDPVAEKTLKELKKHYMVFDEKVLSKLPVASLKAKLG | – | – | – | – | – | – | – | – | 2.2 ns | 0.22 ns
mRFP-RTN3 (natural protein) MAEEHKHEESIMEKISEKIHGHDDSSSSSSDSDDDKNSASLKTKIYRLFGREQPLHKLFGGGKPADIFLWRNKKVSGGVLGAATVSWILFELLEYNLLTLFGHISILALAVLFLWSSASTFIHKSPLHIPEVHIPEDVVLQLASGLRIEINRGFTVLRDIASGRDLKKFLLVIAGLWVLSKVGSSCNFLTLIYIATVLLFTIPVLYEKYEDKVDDFGEKAMREIKKQYVEFDVKVLSKVMSKIPKGAFAFIKKKD | 2.12 ns | 0.29 ns | 2.07 ns | 0.32 ns | 2.09 ns | 0.31 ns | 2.05 ns | 0.32 ns | – | –
